Where a chain is given by its changes, count along the chain named.
B1: VHH 00049 (VHH, not shown: small tags and cut ends)
VHH: EVQLVESGGGLVQPGGSLRLSCAASGFTFDDYALGWFRQAAGKEREGVSCIRCSDGSTYYADSVKGRFTISSDNSKNTVYLQMNSLRPEDTAVYYCAASIVPRSKLEPYEYDAWGQGTLVTVSS
B2: VHH 00050 (VHH, not shown: small tags and cut ends)
VHH: B1 VHH with A41P
B3: VHH 00051 (VHH, not shown: small tags and cut ends)
VHH: B1 VHH with D55G
B4: VHH 00921 (VHH, not shown: small tags and cut ends)
VHH: B1 VHH with A41P, D55G
B5: VHH 00925 (VHH, not shown: small tags and cut ends)
VHH: B1 VHH with E1D, A41P, D55G
B6: VHH 00044 (VHH, not shown: small tags and cut ends)
VHH: EVQLVESGGGLVQPGGSLRLSCAASGFALDYYAIGWFRQAPGKEREGVSCISSSDGITYYVDSVKGRFTISRDNSKNTVYLQMNSLRPEDTAVYYCATDSGGYIDYDCMGLGYDYWGQGTLVTVSS
B7: VHH 00045 (VHH, not shown: small tags and cut ends)
VHH: B6 VHH with V61A
B8: VHH 00046 (VHH, not shown: small tags and cut ends)
VHH: B6 VHH with D55G
B9: VHH 00920 (VHH, not shown: small tags and cut ends)
VHH: B6 VHH with D55G, V61A
B10: VHH 00924 (VHH, not shown: small tags and cut ends)
VHH: B6 VHH with E1D, D55G, V61A
B11: VHH 00926 (VHH, not shown: small tags and cut ends)
VHH: B6 VHH with D55G, V61A, M109Q
B12: VHH 00927 (VHH, not shown: small tags and cut ends)
VHH: B6 VHH with D55G, V61A, M109R
B13: VHH 00928 (VHH, not shown: small tags and cut ends)
VHH: B6 VHH with D55G, V61A, M109S
B14: VHH 00929 (VHH, not shown: small tags and cut ends)
VHH: B6 VHH with D55G, V61A, D99E, M109Q
B15: VHH 00930 (VHH, not shown: small tags and cut ends)
VHH: B6 VHH with D55G, V61A, D99E, M109R
B16: VHH 00931 (VHH, not shown: small tags and cut ends)
VHH: B6 VHH with D55G, V61A, D99E, M109S
B17: VHH 00898 (VHH, not shown: small tags and cut ends)
VHH: EVQLVESGGGLVQAGGSLRLSCAASGFTLDDYAIGWFRQAPGKEREGVSAIRDNDGSTYYADSVKGRFTISSDNDKNTVYLQMNSLKPEDTAVYYCAAVPAGRLRFGEQWYPLYEYDAWGQGTLVTVSS
B18: VHH 00899 (VHH, not shown: small tags and cut ends)
VHH: B17 VHH with A50S, N54I
B19: VHH 00900 (VHH, not shown: small tags and cut ends)
VHH: B17 VHH with A24V, A50S
B20: VHH 00902 (VHH, not shown: small tags and cut ends)
VHH: B17 VHH with N54S, D55G
B21: VHH 00923 (VHH, not shown: small tags and cut ends)
VHH: B17 VHH with E1D, A14P, D55G, D75S, K87R
B22: VHH 15H04 (VHH, not shown: small tags and cut ends)
VHH: EVQLVESGGGLVQAGGSLGLSCAASERTLPSYVMGWFRQAPGKELEFVAGISWSSGRTYYTDSVKGRFTISRDAAENTWYLQMNSLKPEDTAVYYCASNSVSEPTLHTWQYEASYDYWGQGTQVTVSS
B23: VHH 22C07 (VHH, not shown: small tags and cut ends)
VHH: EVQLVESGGGLVQAGGSLRLSCAASGFTFDDYAIGWFRQAPGKEREGVSCISSSDGSTYYADSVKGRFTISSDNAKNTVYLQMNSLKPEDTAVYYCAADFIISSKRLCLDLFGSRGQGTQVTVSS
B24: VHH 2F04 (VHH, not shown: small tags and cut ends)
VHH: EVQLVESGGGLVQAGGSLRLSCAASGFAFDDHLIGWFRQAPGKEREAVSCISRSAGSTYYADSVKGRFTISSDNAKNTVYLQMNSLKADDTAVYYCAAGPAWGRPASPLPYEYDYWGQGTQVTVSS
B25: VHH 3A07 (VHH, not shown: small tags and cut ends)
VHH: EVQLVESGGGLVQPGGSLRLSCAASGFTLDYDAIGWFRQAPGKEREGVSCITSSDGITYYADSVKGRFTISRDNAKNTVYLQMNSLKPEDTAVYYCATGNRRIYYSDYALACFPYEYDYWGQGTQVTVSS
B26: VHH 3F02 (VHH, not shown: small tags and cut ends)
VHH: EVQLVESGGGLVQVGDSLRLACAASGRTFSTYLMVGWFRQAPGKEREFAAGIWSSGDTAYADSVKGRFTISRDNAKNTVYLQMNSLKTEDTAVYYCAGSYDGNYYIPGFYKDWGQGTQVTVSS
B27: VHH 6H05 (VHH, not shown: small tags and cut ends)
VHH: EVQLVESGGGLVQAGGSLRLSCAASGFTFDDYAIGWFRQAPGKEREGVSCISSSDGSTAYADSVKGRFTISSDNAKNTVYLQMNSLKPEDTAVYYCTAVPATRRTPQMVAANVCWLAEYEYDYWGQGTQVTVSS
B28: VHH 10C06 (VHH, not shown: small tags and cut ends)
VHH: EVQLVESGGGLVQAGGSLRLSCVASGFTFDDYAIGWFRQAPGKEREGVSCISSSDGSTYYADSVKGRFTISGDNAKNTVYLQMNSLKPEDTAVYYCAAGITPCSDYTQTYEYDVWGQGTQVTVSS
B29: VHH 12B03 (VHH, not shown: small tags and cut ends)
VHH: EVQLVESGGGLVQSGGSLRLSCAASGFALDYYTIGWFRQAPGKEREGVSCISGGDTSTYYADSVKGRFTISRDNAKNTVYLQMNSLKPEDTAVYYCATDSAGVPAGPAAVYGSTCSRLEYDYWGQGAQVTVSS
B30: VHH 14H02 (VHH, not shown: small tags and cut ends)
VHH: EVQLVESGGGLVQAGGSLRLSCAASGFTFDEYAIGWFRQAPGKEREGVSYISSSDGSTYYADSVKGRVTSSSDNAKNTVYLQMNSLKPEDTAVYYCAARPTLRVRLDNDRHHLLYEYEYDYWGQGTQVTVSS
B31: VHH 16G09 (VHH, not shown: small tags and cut ends)
VHH: EVQLVESGGGLVQAGGSLRLVCSASGIDFSINAMAWYRQAPGKQREWVAFMINDSSTDYTDSVKGRFTISRDSTKNILYLQMNNLNVEDTAVYYCNTAYEQHTYWGQGTQVTVSS
B32: VHH 21G10 (VHH, not shown: small tags and cut ends)
VHH: EVQLVESGGGLVQAGGSLRLSCAASGFTLDDYAIGWFRQAPGKEREGVSCISSSDGSTTYADSVKGRFTVSSDNAKNTVYLQMNSLKPEDTAVYYCAAGLRGRYYRGTYSLVCAPYEYDFWGQGTQVTVSS
B33: VHH 10A03 (VHH, not shown: small tags and cut ends)
VHH: EVQLVESGGGSVQAGGSLRLSCAASERTFSPYAMGWFRQAPGKEREFVAHITWSAGSTYYADSVKGRFTISRDNAKNTVYLQMNSLKPEDTAVYYCAAKRRYGIVDRDYNDWGQGTQVTVSS
B34: VHH 19A03 (VHH, not shown: small tags and cut ends)
VHH: EVQLVESGGGLVQAGGSLRLSCAASGFTFDDYAIAWFRQAPGKEREGISCITPSDDRTYYADSVKGRFIISSDNAKNTVYLQMNSLKPEDTADYYCAAVPRLRGLGYWPYPEYEYDYWGQGTQVTVSS
B35: VHH 23C10 (VHH, not shown: small tags and cut ends)
VHH: EVQLVESGGGLVQPGGSLRLSCAASGFALDYYAIGWFRQAPGKEREGVSCISSSDGSTYYADSVKGRFTISRDNAKNTVYLQMNSLKPEDTAVYYCATDSLGYGSSCRMAPYEYDYWGQGTQVTVSS
B36: VHH 25B01 (VHH, not shown: small tags and cut ends)
VHH: EVQLVESGGGLVQAGGSLRLSCAASGFTFDDYAIGWFRQAPGKEREGVSCISSSDGSTYYADSVKGRFTISSDNAKNTVYLQMNSLKPEDTAVYYCAAAWGASRLPIGTMPPYEYDYWGQGTQVTVSS
B37: VHH 22G11 (VHH, not shown: small tags and cut ends)
VHH: EVQLVESGGGLVQAGGSLRLSCAVSGFTFDDYAIGWFRQAPGKEREGVSCISRSDGSPYYADSVKGRFTISSDNAKGTVYLQMSSLKPEDTAVYYCAASWSGAYYSGTYYCDRLYEYDAWGQGTQVTVSS
B38: VHH 2G01 (VHH, not shown: small tags and cut ends)
VHH: EVQLVESGGGLVQAGGSLRLSCAASGRTISSYAMAWFRQAPGKEREFVAAISLSGDSTYYADSVKGRFTISRDNAKNTVYLQMNSLKPEDTAEYYCAATDWDFEDIPEYYCSGYGCDESLFDSWGQGTQVTVSS
B39: VHH 15A06 (VHH, not shown: small tags and cut ends)
VHH: EVQLVESGGGLVQAGGSLRLSCAASGRTFSSYAMGWFRQAPGKEREFVARISWNGGSTYHADSVKGRFTISRDNPKNTVYLQMDSLKPEDAAIYYCAASIALVGGVTPHSYDYWGQGTQVTVSS

Molecular target: FLAG-tagged human Ang2 (human) (UniProt O15123)
Assay: competition ELISA: FLAG-hAng2 binding to coated hTie2-Fc

Sequence of FLAG-tagged human Ang2 (human) (O15123 19-496): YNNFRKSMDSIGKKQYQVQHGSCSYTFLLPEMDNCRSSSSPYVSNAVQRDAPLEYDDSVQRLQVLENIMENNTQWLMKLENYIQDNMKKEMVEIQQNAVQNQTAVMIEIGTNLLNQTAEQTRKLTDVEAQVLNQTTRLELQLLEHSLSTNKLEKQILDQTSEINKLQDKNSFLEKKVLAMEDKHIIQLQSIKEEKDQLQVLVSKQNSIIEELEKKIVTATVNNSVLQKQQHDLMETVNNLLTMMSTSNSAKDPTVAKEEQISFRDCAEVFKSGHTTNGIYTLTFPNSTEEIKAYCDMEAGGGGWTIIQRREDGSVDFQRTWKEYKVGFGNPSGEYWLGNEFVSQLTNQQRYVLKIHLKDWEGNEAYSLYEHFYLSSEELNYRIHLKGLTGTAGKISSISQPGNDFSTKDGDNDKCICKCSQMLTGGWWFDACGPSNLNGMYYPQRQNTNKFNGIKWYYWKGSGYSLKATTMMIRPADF

Row | Binder | IC50
1 | B1 | 6.9 nM
2 | B2 | 6 nM
3 | B3 | 16.1 nM
4 | B4 | 30.4 nM
5 | B5 | 22.1 nM
6 | B6 | 0.069 nM
7 | B7 | 0.12 nM
8 | B8 | 0.095 nM
9 | B9 | 0.13 nM
10 | B10 | 0.11 nM
11 | B11 | 0.25 nM
12 | B12 | 0.22 nM
13 | B13 | 0.22 nM
14 | B14 | 0.15 nM
15 | B15 | 0.19 nM
16 | B16 | 0.17 nM
17 | B17 | 1.2 nM
18 | B18 | 0.9 nM
19 | B19 | 0.2 nM
20 | B20 | 1.3 nM
21 | B21 | 0.7 nM

Molecular target: FLAG tagged human Ang2 (Alexis Biochemicals) (human) (UniProt O15123)
Assay: competition ELISA, FLAG-hAng2 (0.02 nM) on coated hTie2/Fc

Sequence of FLAG tagged human Ang2 (Alexis Biochemicals) (human) (O15123 19-496): as above

Row | Binder | IC50
22 | B22 | 18.6 nM
23 | B23 | 11 nM
24 | B24 | 2.8 nM
25 | B25 | 21 nM
26 | B26 | 9.1 nM
27 | B27 | 5.3 nM
28 | B28 | 7.7 nM
29 | B29 | 4.6 nM
30 | B30 | 64.4 nM
31 | B31 | 11.3 nM
32 | B32 | 6.2 nM

Molecular target: FLAG tagged human Ang2 (Alexis Biochemicals) (human) (UniProt O15123)
Assay: competition ELISA, periplasmic extract, FLAG-hAng2 on hTie2/Fc

Row | Binder | % inh
33 | B22 | 82%
34 | B33 | 0%
35 | B23 | 78%
36 | B34 | 74%
37 | B35 | 37%
38 | B36 | 5%
39 | B37 | 100%
40 | B38 | 39%
41 | B39 | 0%

Molecular target: FLAG tagged human Ang2 (Alexis Biochemicals) (human) (UniProt O15123)
Assay: AlphaScreen competition, periplasmic extract, FLAG-hAng2 / biotin-hTie2/Fc

Row | Binder | % inh
42 | B22 | 57%
43 | B33 | 67%
44 | B23 | 73%
45 | B34 | 74%
46 | B35 | 57%
47 | B36 | 61%
48 | B37 | 96%
49 | B38 | 55%
50 | B39 | 72%

Source: US20230203146A1
